Measured values published in article PMC12143351.
Where two headings read alike, the source gives them in different places.

Assays:
[1] = target: WT-nsp5_(BA.1), SARS-CoV-2 nsp5 protease of the Omicron (BA.1) strain (SARS-CoV-2 (Omicron BA.1)); test: SEC-MALS
[2] = target: WT-nsp5_(BA.1), SARS-CoV-2 nsp5 protease of the Omicron (BA.1) strain (SARS-CoV-2 (Omicron BA.1)); test: SEC-MALS; remark: listed apart in the source

For “WT-nsp5_(BA.1), SARS-CoV-2 nsp5 protease of the Omicron (BA.1) strain (enzyme)”, the percent dimeric [1] was 72%, the stoichiometry N [1] was 2 and the percent dimeric [2] was 64%.
